Reference: patent US20160009824A1 (Merck KGaA, published 2016)
Blank lines part the entries; values can stand above or below the binder they belong to.

Experiments:
[1] = target: T1, CD20 expressed on cells (human Daudi Burkitt's lymphoma cells); CD20-transfected mouse NS0 cells; human … (human, UniProt P11836 1-297); assay: flow cytometry on Daudi cells (CD20+, CD52-), detection with TRITC F(ab')2 goat anti-human IgG Fcγ
T1 construct: whole, on cells; SU-DHL4 cells also express CD47 at low levels; also called NS0/CD20
T1 sequence (looked up): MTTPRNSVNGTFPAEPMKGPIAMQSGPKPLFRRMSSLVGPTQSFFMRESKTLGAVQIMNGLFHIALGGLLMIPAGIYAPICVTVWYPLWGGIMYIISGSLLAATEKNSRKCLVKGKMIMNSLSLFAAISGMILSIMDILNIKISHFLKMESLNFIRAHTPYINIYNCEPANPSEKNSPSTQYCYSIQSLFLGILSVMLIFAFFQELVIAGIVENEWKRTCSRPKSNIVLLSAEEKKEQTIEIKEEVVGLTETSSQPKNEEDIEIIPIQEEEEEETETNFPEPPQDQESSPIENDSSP

[2] = target: T1, CD20 expressed on cells (human Daudi …); assay: flow cytometry on CD20-expressing cells (Daudi by legend paragraph 36 and paragraph 140; the method paragraph 139 names Ramos), detection with TRITC F(ab')2 goat anti-human IgG Fcγ
[3] = target: FcγRIII (CD16) on NK cells (human, UniProt P08637 17-254); assay: cell-based or functional assay
Chain of FcγRIII (CD16) on NK cells (P08637 17-254): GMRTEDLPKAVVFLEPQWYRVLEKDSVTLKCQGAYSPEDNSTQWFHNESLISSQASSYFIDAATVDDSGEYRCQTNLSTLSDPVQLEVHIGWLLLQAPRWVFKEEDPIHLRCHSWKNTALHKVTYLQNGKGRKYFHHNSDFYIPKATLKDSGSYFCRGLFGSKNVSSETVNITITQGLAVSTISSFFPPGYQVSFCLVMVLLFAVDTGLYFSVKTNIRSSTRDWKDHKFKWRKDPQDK

[4] = target: T1, CD20 expressed on cells (human Daudi …); assay: flow cytometry on CD20-transfected NS0 cells, detection with TRITC F(ab')2 goat anti-human IgG Fcγ
[5] = target: T2, CD47 expressed on cells (human U937 histiocytic lymphoma cells; human SU-DHL4 cells; human A431 cells) (human, UniProt Q08722 19-323); assay: flow cytometry on U937 cells (CD47+, CD20-), detection with TRITC F(ab')2 goat anti-human IgG Fcγ
T2 construct: whole, on cells

- binding result [1]: no binding (tested: 100 µg/ml)
B1: anti-CD52/anti-CD20 TetBiAb (bispecific antibody, human IgG1, kappa)
chain: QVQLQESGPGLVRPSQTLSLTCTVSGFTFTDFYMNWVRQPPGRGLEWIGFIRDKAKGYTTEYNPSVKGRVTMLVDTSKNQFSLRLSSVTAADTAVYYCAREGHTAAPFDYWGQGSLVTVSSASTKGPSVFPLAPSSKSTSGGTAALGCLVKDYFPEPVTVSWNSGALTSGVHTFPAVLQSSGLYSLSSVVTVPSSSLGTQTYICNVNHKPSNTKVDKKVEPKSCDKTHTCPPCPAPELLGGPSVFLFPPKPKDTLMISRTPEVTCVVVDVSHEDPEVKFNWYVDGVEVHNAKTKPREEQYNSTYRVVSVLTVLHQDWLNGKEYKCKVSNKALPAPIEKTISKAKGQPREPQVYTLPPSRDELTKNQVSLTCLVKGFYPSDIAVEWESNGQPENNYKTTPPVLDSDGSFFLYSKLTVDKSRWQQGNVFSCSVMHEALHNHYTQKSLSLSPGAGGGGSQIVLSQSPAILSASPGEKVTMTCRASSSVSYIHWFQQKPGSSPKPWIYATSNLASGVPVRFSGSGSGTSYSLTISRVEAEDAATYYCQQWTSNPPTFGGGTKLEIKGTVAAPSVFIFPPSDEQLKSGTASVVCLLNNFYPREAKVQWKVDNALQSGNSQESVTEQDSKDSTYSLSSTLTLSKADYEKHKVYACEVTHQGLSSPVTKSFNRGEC
light: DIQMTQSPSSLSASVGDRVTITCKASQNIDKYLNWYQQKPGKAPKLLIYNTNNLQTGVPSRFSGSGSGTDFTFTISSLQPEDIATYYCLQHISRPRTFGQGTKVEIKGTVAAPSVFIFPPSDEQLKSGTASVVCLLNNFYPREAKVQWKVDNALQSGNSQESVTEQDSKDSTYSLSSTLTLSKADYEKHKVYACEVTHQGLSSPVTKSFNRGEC
heavy: QVQLQQPGAELVKPGASVKMSCKASGYTFTSYNMHWVKQTPGRGLEWIGAIYPGNGDTSYNQKFKGKATLTADKSSSTAYMQLSSLTSEDSAVYYCARSTYYGGDWYFNVWGAGTTVTVSAASTKGPSVFPLAPSSKSTSGGTAALGCLVKDYFPEPVTVSWNSGALTSGVHTFPAVLQSSGLYSLSSVVTVPSSSLGTQTYICNVNHKPSNTKVDKKVEPKSC
notes: Hexameric TetBiAb from Campath and 2B8, IgG1 Fc

- EC50 (read off the curve) [2]: ~3 µg/mL
B2: anti-CD20/anti-CD16 TetBiAb (bispecific antibody)
chain: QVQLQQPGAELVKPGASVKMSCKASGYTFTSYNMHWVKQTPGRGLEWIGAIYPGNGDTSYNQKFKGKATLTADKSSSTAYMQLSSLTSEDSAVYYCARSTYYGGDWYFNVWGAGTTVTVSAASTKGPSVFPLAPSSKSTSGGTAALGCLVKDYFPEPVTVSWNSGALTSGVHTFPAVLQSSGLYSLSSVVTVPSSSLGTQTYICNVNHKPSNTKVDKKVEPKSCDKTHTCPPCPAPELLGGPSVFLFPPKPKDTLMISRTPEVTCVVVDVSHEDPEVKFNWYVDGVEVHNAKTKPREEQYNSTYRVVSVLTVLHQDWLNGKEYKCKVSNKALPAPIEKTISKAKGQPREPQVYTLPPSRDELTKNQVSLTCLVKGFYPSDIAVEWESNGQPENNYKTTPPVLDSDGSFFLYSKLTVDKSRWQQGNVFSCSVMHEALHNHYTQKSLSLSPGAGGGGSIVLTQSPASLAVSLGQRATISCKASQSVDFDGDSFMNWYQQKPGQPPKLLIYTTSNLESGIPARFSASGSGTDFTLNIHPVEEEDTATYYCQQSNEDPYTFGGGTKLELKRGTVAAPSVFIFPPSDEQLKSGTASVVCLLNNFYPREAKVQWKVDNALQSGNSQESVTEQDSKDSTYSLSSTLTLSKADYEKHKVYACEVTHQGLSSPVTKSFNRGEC
light: QIVLSQSPAILSASPGEKVTMTCRASSSVSYIHWFQQKPGSSPKPWIYATSNLASGVPVRFSGSGSGTSYSLTISRVEAEDAATYYCQQWTSNPPTFGGGTKLEIKRGTVAAPSVFIFPPSDEQLKSGTASVVCLLNNFYPREAKVQWKVDNALQSGNSQESVTEQDSKDSTYSLSSTLTLSKADYEKHKVYACEVTHQGLSSPVTKSFNRGEC
heavy: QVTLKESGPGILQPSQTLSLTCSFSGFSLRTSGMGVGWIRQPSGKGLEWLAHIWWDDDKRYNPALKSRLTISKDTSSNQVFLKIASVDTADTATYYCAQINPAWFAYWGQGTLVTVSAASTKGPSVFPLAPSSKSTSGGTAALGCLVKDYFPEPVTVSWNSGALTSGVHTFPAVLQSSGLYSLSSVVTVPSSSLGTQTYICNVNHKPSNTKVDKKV
notes: Hexameric TetBiAb from 2B8 and 3G8, IgG1 Fc
- antibody-dependent cell-mediated cytotoxicity (ADCC), LDH release from Ramos cells with NK effector cells [3]: 10 fold

Second part, the binder before the results:

B3: anti-CD20/anti-CD47 TetBiAb (bispecific antibody, human IgG1, kappa)
chain: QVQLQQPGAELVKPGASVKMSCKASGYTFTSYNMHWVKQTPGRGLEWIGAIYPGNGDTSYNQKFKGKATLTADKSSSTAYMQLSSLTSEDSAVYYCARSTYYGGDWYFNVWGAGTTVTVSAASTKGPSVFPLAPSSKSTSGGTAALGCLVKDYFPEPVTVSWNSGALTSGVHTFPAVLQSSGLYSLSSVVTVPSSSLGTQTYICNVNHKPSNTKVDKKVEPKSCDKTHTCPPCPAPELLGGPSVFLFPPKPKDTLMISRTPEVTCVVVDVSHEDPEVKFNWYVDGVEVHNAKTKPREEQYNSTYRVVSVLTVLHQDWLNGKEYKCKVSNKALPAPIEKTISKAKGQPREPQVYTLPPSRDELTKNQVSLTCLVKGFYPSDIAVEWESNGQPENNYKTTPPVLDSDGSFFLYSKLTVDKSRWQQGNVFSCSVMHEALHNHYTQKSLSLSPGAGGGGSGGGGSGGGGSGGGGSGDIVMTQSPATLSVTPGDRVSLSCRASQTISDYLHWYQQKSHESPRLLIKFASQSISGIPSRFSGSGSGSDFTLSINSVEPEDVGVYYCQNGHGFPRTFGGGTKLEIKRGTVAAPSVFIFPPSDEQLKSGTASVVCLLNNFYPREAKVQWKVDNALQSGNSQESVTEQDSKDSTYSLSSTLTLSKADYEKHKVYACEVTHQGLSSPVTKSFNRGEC
light: QIVLSQSPAILSASPGEKVTMTCRASSSVSYIHWFQQKPGSSPKPWIYATSNLASGVPVRFSGSGSGTSYSLTISRVEAEDAATYYCQQWTSNPPTFGGGTKLEIKRGTVAAPSVFIFPPSDEQLKSGTASVVCLLNNFYPREAKVQWKVDNALQSGNSQESVTEQDSKDSTYSLSSTLTLSKADYEKHKVYACEVTHQGLSSPVTKSFNRGEC
heavy: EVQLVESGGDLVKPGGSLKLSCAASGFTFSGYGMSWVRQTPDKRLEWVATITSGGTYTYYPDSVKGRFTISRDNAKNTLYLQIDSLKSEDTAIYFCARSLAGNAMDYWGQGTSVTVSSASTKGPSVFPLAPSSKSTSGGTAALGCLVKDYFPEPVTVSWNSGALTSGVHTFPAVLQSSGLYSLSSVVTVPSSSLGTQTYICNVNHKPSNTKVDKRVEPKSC
notes: Hexameric TetBiAb from 2B8 and B6H12, IgG1 Fc; Alexa 488-labelled in the SU-DHL4 assay
- binding result [4]: binds
- EC50 (read off the curve) [5]: ~10 µg/mL

B4: anti-CD20/anti-CD52 TetBiAb (bispecific antibody, human IgG1, kappa)
chain: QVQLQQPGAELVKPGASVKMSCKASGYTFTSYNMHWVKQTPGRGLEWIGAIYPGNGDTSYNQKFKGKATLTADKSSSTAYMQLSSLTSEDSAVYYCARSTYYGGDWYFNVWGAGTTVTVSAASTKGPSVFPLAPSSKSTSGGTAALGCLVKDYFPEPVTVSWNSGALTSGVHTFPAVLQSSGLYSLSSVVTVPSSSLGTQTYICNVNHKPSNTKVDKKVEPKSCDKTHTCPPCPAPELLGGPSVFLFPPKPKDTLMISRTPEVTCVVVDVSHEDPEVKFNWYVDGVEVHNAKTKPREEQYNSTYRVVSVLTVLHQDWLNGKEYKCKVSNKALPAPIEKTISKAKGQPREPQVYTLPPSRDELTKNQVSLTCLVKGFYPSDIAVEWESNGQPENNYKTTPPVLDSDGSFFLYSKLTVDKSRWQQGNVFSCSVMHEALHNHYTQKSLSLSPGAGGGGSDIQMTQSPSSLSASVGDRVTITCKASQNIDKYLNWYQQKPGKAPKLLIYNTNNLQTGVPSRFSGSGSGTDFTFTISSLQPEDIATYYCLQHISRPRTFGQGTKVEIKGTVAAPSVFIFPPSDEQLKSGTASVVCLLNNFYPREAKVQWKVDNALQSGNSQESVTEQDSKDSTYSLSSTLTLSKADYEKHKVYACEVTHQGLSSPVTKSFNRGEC
light: QIVLSQSPAILSASPGEKVTMTCRASSSVSYIHWFQQKPGSSPKPWIYATSNLASGVPVRFSGSGSGTSYSLTISRVEAEDAATYYCQQWTSNPPTFGGGTKLEIKRGTVAAPSVFIFPPSDEQLKSGTASVVCLLNNFYPREAKVQWKVDNALQSGNSQESVTEQDSKDSTYSLSSTLTLSKADYEKHKVYACEVTHQGLSSPVTKSFNRGEC
heavy: QVQLQESGPGLVRPSQTLSLTCTVSGFTFTDFYMNWVRQPPGRGLEWIGFIRDKAKGYTTEYNPSVKGRVTMLVDTSKNQFSLRLSSVTAADTAVYYCAREGHTAAPFDYWGQGSLVTVSAASTKGPSVFPLAPSSKSTSGGTAALGCLVKDYFPEPVTVSWNSGALTSGVHTFPAVLQSSGLYSLSSVVTVPSSSLGTQTYICNVNHKPSNTKVDKKVEPKSC
notes: Hexameric TetBiAb from 2B8 and Campath, IgG1 Fc
- EC50 (read off the curve) [1]: ~5 µg/mL
